Values quoted from earlier work as cited in PMC4264850.

Molecular target: EGFR (Homo sapiens) (UniProt P00533)

Q: With matuzumab as the substance, how does the Kd read?
A: 0.34 nM
